Consider 2 molecules from article PMC8103094, “Androgen receptor (AR) antagonism triggers acute succinate‐mediated adaptive responses to reactivate AR signaling”.

The target of the data set is Androgen receptor DNA-binding domain (AR-DBD) (UniProt P10275 560-632). Put plainly: EMSA; Odyssey infrared EMSA kit (LI-COR): 2.5 mM DTT/0.25% Tween 20, poly(dI.dC), room temperature 30 min, increasing protein; 6% TBE native gel; salt and pH not stated. The conditions noted are these: protein: recombinant; chain copies: 2; label: 5' IRDye700 on both strands; blunt.
Androgen receptor DNA-binding domain (AR-DBD), sequence (P10275 560-632): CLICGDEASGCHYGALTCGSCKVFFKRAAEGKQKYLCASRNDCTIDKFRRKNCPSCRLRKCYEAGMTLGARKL

B1: SDHA ARE probe (dsDNA)
DNA 1: GCGACTTGTGCTGGCTGAGGGA
DNA 2: TCCCTCAGCCAGCACAAGTCGC
For B1, the binding result is “binds”.

B2: SDHB ARE probe (dsDNA)
DNA 1: AGAGCTCCCTGTACTTTCCCAACA
DNA 2: TGTTGGGAAAGTACAGGGAGCTCT
Consider B2, for which the binding result is “binds”.
